According to the nanobody polyreactivity screen of Harvey et al. (2022):

Assay: yeast display, Sf9 membrane polyspecificity reagent, FACS + sequencing; frameworks hold sequencing errors
Summary of the method: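 Genes from sorted yeast were amplified by colony PCR, read by MiSeq 2 × 250 sequencing and filtered on CDR length. These cells carried a synthetic nanobody library in Saccharomyces cerevisiae BJ5465 and were sorted by FACS into low and high (top ~1%) gates on anti-HA and streptavidin fluorescence. Polyreactivity is labelled according to the gate of origin.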

Sequence | polyreactivity (PSR sort gate)
QVQLVESGGGLVQAGGSLRLSCAASGFTFDSYAMGWYRQAPGKERELVAAITSDGSTYYADSVKGRFTISRDNAKNTVYLQMNSLKPEDTAVYYCAADGISLYATAYDYWGQGTQVTVSS | low polyreactivity
QVQRVESGGGLVQAGGRLRLSCAASGSISVAKAMGWYRQAPGKERELVAAITDSGDDTYYADSVKGRFTISRDNAKNTVYLQMNSLKPEDTAVYYCAAGLRLDLGAMYYWGQGTQVTVSS | low polyreactivity
QVQLVESGGGLVQAGGSLRLSCAASGRIFYGYDMGWYRQAPGKERELVAAITRGVSTYYADSVKGRFTISRDNAKNTVYLQMNSLKPEDTAVYYCAADLSPYVNYWWEYYYWGQGTQVTVSS | low polyreactivity
QVQLVESGGGLVQAGGSLRLSCAASGRTFTCYAMGWYRQAPGKERELVATAITSGGSTNYADSVKGRFTISRDNAKNTVYLQMISLKPEDTAVYYCAAVPTEFGNRLEYDYWGQGTQVTVSS | low polyreactivity
QVQLVESGGGLVQAGGSLRLSCAASGFTFGYYAMGWYRQAPGKEREVVAAIRGGGRTNYADSVKGRFTISRDNAKITVYLQMNSLKPEDTAVYYCNADRLRTLRGDDWGQGSQVTVSS | low polyreactivity
QVQLVESGGGLVQAGGSLRLSCAASGRIFYRNAMGWYRQAPGQERELVAGITRGGSTNYADSVKGRFTLSRDNAKNTVFLHMNSLKPEDTAVYYCAASWPSSLTYYYWGQGSQVTVSS | low polyreactivity
QVQLVESGGGLVQAGGSLRLSCAPSGFIFAKYTMGWSRHAPGKERELVAAISANGGNTYYADSVKGRFTITRDNAKNTVYLQMNSLNPEDTAVYYCAALYKYSSYFDYWGQGTLVTVSS | high polyreactivity
QFQLVESGGCLVQAGGSLRLSCAASGRTFGWYAMGWYRQAPGKERELVAAISTRGTRTYYADSVKGRFTISRDNAKITDYLQMYSLKPEDTAVYYCNAKRRAVTTAHGIPEEDYWGQGTKVTVSS | high polyreactivity
QVQLVESGGGLVQAGGSLRLSSPASGFTFLAYAMGWYRQAPGKERELVAAISASSGRTRYADSVKGRFTISRDNAKNTVYLQMISLKPEDTAVYYCAARYRGTYRRDYWGQGTQVTVSS | high polyreactivity
QVQLVESGGGLVQAGGSLRLSCAASGITFYQYAMGWYRQAPGTETELVAGISYSGGSTYYADSVKGRFTISRDNAKNTVYLQMNSLKPEDTAVYYCAAVQPVGLYPRTKYYYWGQGTQVTVSS | high polyreactivity
QVQLVESGGGLVQAGGSLRLSCAASGRTFQEYAMGWYRQAPGKERELVADISDGGSTNYADSVKGRFTISRDNAKNTVYLQMYSLKPEDTAVYYCAADQYHGVGINFRSDYDYWGQGTQVTVSS | low polyreactivity
PLQLVESGGGLVQAGGSLRLSGAASGIIFNQYPMGWYRQAPGKEREFVPAISSSGGSTYYADSVKGRFTISRDYAKNTVYLQMNSLKPADTAVYFCSADSPGWTYTSRSYDYWGQGTQVTLSS | low polyreactivity
QVQLVESGGGLVQAGGSLRLSCAASGNTFWGNAMGWYIQAPGKERELVAAITSGGNTNYADSVKGRFTISRDNAKNTVYLQMNSLKPEDTAVYYCNVDLKAWLPDGGSVDYWGQGTQVTVSS | low polyreactivity
QVQLVESRGGLVQAGGSLRLSCAASGLIFWFNTMGWYRQAPGTERELVAAITSGGGSTYYADSVKGRFTISRDIAKNTVYLQKNSLKPEDTAVYYCNAGAGRWRARQWHDYWGQGTQVTVSS | low polyreactivity
QVQLVESGGGLVQAGGSLRLSCAASGSTFESYDMGWYRQAPGKERELVAAIDWSGGITYYADSVKGRFTISRDNAKNTVYLQMNSLKPEDTAVYYCNAGPYWWYYGEDYWGQGTQVTVSS | low polyreactivity
QVQLVESGGGLVQAGGSLRLSCAASGSTFVRYAMGWYRQAPGKERELVAAISKRGGSTYYADSVKGRFTISRDNAKNTVYLQMNSLKPEDTAVYYCAAVPLSSRQYDYWGQGTQVTVSS | high polyreactivity
QVQLVESGGGLVQAGGSLRLSCAASGYIFTVYAMGWYRQAPGKERELVAAINWSDGSTYYADSVKGRFTISRDNAKNTVYLQMNSLKPEDTAVYYCATEYWYGIYGYDYWGQGTQVSVSS | high polyreactivity
QVQLVESGGGLVQAGGSLRLSCAASGRIFTRYAMGWYRQAPGKERELVAVITRSGGSTYYADSVKGRFTISRDNAKNNVDLQMNSLKPEDTAVYYCAAKYYGEMYYWGQGTQVTVSS | low polyreactivity
QVQLVESGGGLVQAGGSLRLSCAASGSIFDEYAMGWYRQAPGKERELVAAITRTGGRTYYADSVKGRFTISRDNAKNTVYLQMNSLKPEDTAVYYSAKGTNYRDDYWGQGTQVTVSS | low polyreactivity
QVQLVESGRGLVQAGGSLRLSCAACGSIFVYNDRGCYRQAPGKERELVAAISASGGRTYSADSVKGRFTISRDNAKNTVYLQMNSLKPEDTAVYYCAKDWLWGPEYDYWGQGTQVTVSS | low polyreactivity
QVQLVESGGGLVQAGGSLRLSCAASGRTISWYAMGRYRQAPGKERELVAAITYSGGSTYYAVSVKGRFTISRDNAKNTVYLQMNSLKPEDTAVYYCAADGRVREYDYWGQGTQVTVSS | high polyreactivity
QVQLVESGGGLVQAGGSLRLSCAASGRISRGYAMGWYRQAPGKERELVAAIDSDGDTNYADSVKGRFTISRDNAKNTVYLQMNRLKAEDTAVYYCNKDGAYKTAYKRWTLYDYWGQGTQVTVSS | low polyreactivity
QVQLVESGGGLVQAGGSLRLSCAASGFTFWWYTMGWYRPAPGKERELVAAITSGGSTYYADSVKGRFTISRDNAKNTVYLQMNSLKPEDTAVYYCNVVPYLYGLDGYDYWGQGTQVTVSS | high polyreactivity
QVQLVESGGGLVQAGGSLRLSCAASGRIFVRYTMGWYRQAPGKERELVAAITKRGGSTYYADSVKGRFTISRDNAKNTVYLQMNSLKPEDTAVYYCATDGLGYNRPQDEYWGQGTQVTVSS | high polyreactivity
QVQLVESGGGLVQAGGSLRLSCAASGRTFEVYAMGWYRQAPGKERELVAAISGGDDSTYYADSVQGRFTISRDNAKNTVYLQRNSLKPEDTAVYYCNAHYPTSATLPKTVVEYDYWGQGTQVTVSS | low polyreactivity
QVQLVESGGGLVQAGGSLRLSCAASARIFFTYVMGWYRQAHGKEREFVAAITFSDGTTYYADSVKGRFTISRDNAKNTVYLQMNSLKPEDTAVYYCNTDSFYGFVYPWTISSEVDYWGQGTQVTVSS | low polyreactivity
QVQLAESGGGLVQAGGSLRLSCAASGSIFRLNAMGWYRQAPGKERELVAAINSGTNTYYADSVKGRFTISRDNAKNTVYLQMNSLKPEDTAVYYCAADWNDWHYDYWGQGTQVTVSS | low polyreactivity
QVQLVESGGGLVQAGGSLRLSCAASGFIFTEYAMGWYRQAPGKERELVAAISRSDDGTHYADSVKGRFTISRDYAKNTVYLPMNSLKPEDTAVYDCAAYRDYQYDYWGQGTQVTVSS | low polyreactivity
QVQLVESGGGLVQAGGSLRLSCAASGSIFGAYAMRWYRQAPGKERELVAAISYGGGNTYYADSVKGRFTISRDNAKNTVYLQMNSLKPEDTAFYYCNALFPRVSGSTYRYNYWGQGTQVTVSS | high polyreactivity
QVQLVESGGGLVQAGGSLRLSCAASGITFYLNAMGWYRQAPGKDRELVADITVSGGSTYYADSVKGRFTISRDNAKNTVYLQMNSLKPEDTAVYYCAADLTISYSQEYYYWGQGTQVTVSS | low polyreactivity
